From PMC4988710, “A Model for Dimerization of the SOX Group E Transcription Factor Family”

Tests used:
[1] = molecular target: T1, SOX9 D-HMG (high solubility variant) (Homo sapiens) (UniProt P48436); experiment: EMSA; settings: 10 mM sodium phosphate pH 6.0, 100 mM NaCl, 5 mM EDTA, on ice 30 min (1 h for 32P titrations); 9 nM DNA for Kd, 2 uM DNA for SYBR Green EMSA
T1 sequence: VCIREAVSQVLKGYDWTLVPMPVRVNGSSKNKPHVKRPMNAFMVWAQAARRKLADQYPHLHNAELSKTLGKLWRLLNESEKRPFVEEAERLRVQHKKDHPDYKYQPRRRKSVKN

SOX9 D-HMG L142Q = SOX9 D-HMG L142Q (Homo sapiens, UniProt P48436 71-184, L142Q); experiment: EMSA; dimerization lost; single and double occupancy bands; 10 mM sodium phosphate pH 6.0, 100 mM NaCl, 5 mM EDTA, on ice 30 min (1 h for 32P titrations); 9 nM DNA for Kd, 2 uM DNA for SYBR Green EMSA; settings: protein: recombinant; tags: 6xHis; chain copies: 2; label: 32P 5' for Kd; unlabeled (SYBR Green) in mutant EMSA; blunt; self-complementary, 2 copies of one strand
SOX9 D-HMG A119E = SOX9 D-HMG A119E (Homo sapiens, UniProt P48436 71-184, A119E); experiment: as above; settings: protein: recombinant; tags: 6xHis; chain copies: 2; label: 32P 5' for Kd; unlabeled (SYBR Green) in mutant EMSA; blunt; self-complementary, 2 copies of one strand
SOX9 HMG [2] = molecular target: T2, SOX9 HMG (Homo sapiens, UniProt P48436 110-184); experiment: EMSA; Hill 2.2 ± 0.4; 10 mM sodium phosphate pH 6.0, 100 mM NaCl, 5 mM EDTA, on ice 30 min (1 h for 32P titrations); 9 nM DNA for Kd, 2 uM DNA for SYBR Green EMSA; settings: protein: recombinant; tags: 6xHis; label: 32P 5' for Kd; unlabeled (SYBR Green) in mutant EMSA; blunt; self-complementary, 2 copies of one strand
SOX9 D-HMG A118E = SOX9 D-HMG A118E (Homo sapiens, UniProt P48436 71-184, A118E); experiment: EMSA; dimerization retained; 10 mM sodium phosphate pH 6.0, 100 mM NaCl, 5 mM EDTA, on ice 30 min (1 h for 32P titrations); 9 nM DNA for Kd, 2 uM DNA for SYBR Green EMSA; settings: protein: recombinant; tags: 6xHis; chain copies: 2; label: 32P 5' for Kd; unlabeled (SYBR Green) in mutant EMSA; blunt; self-complementary, 2 copies of one strand
SOX9 D-HMG L145E = SOX9 D-HMG L145E (Homo sapiens, UniProt P48436 71-184, L145E); experiment: as above; settings: protein: recombinant; tags: 6xHis; chain copies: 2; label: 32P 5' for Kd; unlabeled (SYBR Green) in mutant EMSA; blunt; self-complementary, 2 copies of one strand
SOX9 HMG [3] = molecular target: T2, SOX9 HMG; experiment: EMSA; Hill 1.6 ± 0.5; 10 mM sodium phosphate pH 6.0, 100 mM NaCl, 5 mM EDTA, on ice 30 min (1 h for 32P titrations); 9 nM DNA for Kd, 2 uM DNA for SYBR Green EMSA; settings: protein: recombinant; tags: 6xHis; label: 32P 5'; blunt

Molecule: GGGTTAACAGAACAATGGAATCTGGTAGA (double strand) [S9WT]
- Kd [1]: 82 nM

Molecule: GGGATCCTACACAAAGCCGGCTTTGTGTAGGATCCC (double strand) [CC36]
- Kd [1]: 98 nM

B1: CC36 (dsDNA)
DNA 1: GGGATCCTACACAAAGCCGGCTTTGTGTAGGATCCC
DNA 2: B1 DNA 1
- binding result (SOX9 D-HMG L142Q): binds
- binding result (SOX9 D-HMG A119E): binds
- Kd (SOX9 HMG [2]): 109 ± 10 nM
- binding result (SOX9 D-HMG A118E): binds
- binding result (SOX9 D-HMG L145E): binds

B2: S9WT (dsDNA)
DNA 1: GGGTTAACAGAACAATGGAATCTGGTAGA
DNA 2: TCTACCAGATTCCATTGTTCTGTTAACCC
- Kd (SOX9 HMG [3]): 101 ± 33 nM
